Consider 6 molecules from paper PMC4957051, “Molecular Mechanism of Z α1-Antitrypsin Deficiency*” (The Journal of Biological Chemistry, 2016).

The chains are these.
B1: α1-AT-S292C-T339C-E342A, reduced form (natural protein, human, UniProt P01009 25-418, looked up)
chain: EDPQGDAAQKTDTSHHDQDHPTFNKITPNLAEFAFSLYRQLAHQSNSTNIFFSPVSIATAFAMLSLGTKADTHDEILEGLNFNLTEIPEAQIHEGFQELLRTLNQPDSQLQLTTGNGLFLSEGLKLVDKFLEDVKKLYHSEAFTVNFGDTEEAKKQINDYVEKGTQGKIVDLVKELDRDTVFALVNYIFFKGKWERPFEVKDTEEEDFHVDQVTTVKVPMMKRLGMFNIQHSKKLSSWVLLMKYLGNATAIFFLPDEGKLQHLENELTHDIITKFLENEDRRSASLHLPKLCITGTYDLKSVLGQLGITKVFSNGADLSGVTEEAPLKLSKAVHKAVLCIDAKGTEAAGAMFLEAIPRSIPPEVKFNKPFVFLMIEQNTKSPLFMGKVVNPTQK
notes: α1-antitrypsin (α1-AT), human cDNA in pQE31, Pittsburgh backbone (M358R and C232S) with S292C, T339C and E342A; Same chain as m6, with the engineered disulfide reduced; also called α1-AT-SS-E342A (reduced); source: E. coli, purified; reduced form prepared
B2: α1-AT E342A (Pittsburgh backbone) (natural protein, human, UniProt P01009 25-418, looked up)
chain: EDPQGDAAQKTDTSHHDQDHPTFNKITPNLAEFAFSLYRQLAHQSNSTNIFFSPVSIATAFAMLSLGTKADTHDEILEGLNFNLTEIPEAQIHEGFQELLRTLNQPDSQLQLTTGNGLFLSEGLKLVDKFLEDVKKLYHSEAFTVNFGDTEEAKKQINDYVEKGTQGKIVDLVKELDRDTVFALVNYIFFKGKWERPFEVKDTEEEDFHVDQVTTVKVPMMKRLGMFNIQHSKKLSSWVLLMKYLGNATAIFFLPDEGKLQHLENELTHDIITKFLENEDRRSASLHLPKLSITGTYDLKSVLGQLGITKVFSNGADLSGVTEEAPLKLSKAVHKAVLTIDAKGTEAAGAMFLEAIPRSIPPEVKFNKPFVFLMIEQNTKSPLFMGKVVNPTQK
notes: α1-antitrypsin (α1-AT), human cDNA in pQE31, Pittsburgh backbone (M358R and C232S) with E342A; also called E342A mutant; source: E. coli, purified from the soluble fraction of the lysate

In data set [1] the target is activated factor X (FXa). The experiment in a line: rates and stoichiometries of protease inhibition; as described previously (ref. 48); each value the average of three independent measurements.
In data set [2] the target is thrombin. Described as above.
Data set [3] concerns the molecule itself. Nature of the data set: native gel or EMSA; thermal stability: α1-AT variants incubated at various temperatures in 10 mM Tris-HCl, pH 7.4, 0.1 M NaCl, 0.5 M urea for 30 min, then native gel. (In general: Mobility shift assays separate free from complexed probe on a gel.)
Data set [4] has as its target T1, recombinant wild type α1-antitrypsin (α1-AT Pittsburgh backbone, M358R and C232S) (human, UniProt P01009 25-418, M358R | C232S).
T1 construct: α1-antitrypsin (α1-AT), human cDNA in pQE31, Pittsburgh backbone (M358R and C232S); probably the mature protein behind the tag; also called Wt; WT; source: E. coli, purified from the soluble fraction of the lysate
Nature of the data set: native gel or EMSA; peptide annealing: α1-AT variants (0.5 mg/ml) incubated with 100-fold molar excess of 6-mer peptide at 37 °C for different time intervals, then 8% native gel with 7 M urea; the binary complex resists urea. Conditions: both partners purified.

Data set [5] addresses T2, α1-AT E342C (Pittsburgh backbone) (human, UniProt P01009 25-418, M358R | C232S | E342C).
T2 construct: α1-antitrypsin (α1-AT), human cDNA in pQE31, Pittsburgh backbone (M358R and C232S) with E342C; also called E342C mutant; source: E. coli, purified from the soluble fraction of the lysate
The data set is described as above. The conditions noted are these: both partners purified.

The target of data set [6] is B2. The data set is described as above. Conditions: both partners purified.
The target in data set [7] is T3, α1-AT-S292C-T339C-E342A, oxidized form (disulfide between s5A and s6A) (human, UniProt P01009 25-418, M358R | C232S | S292C | T339C | E342A, disulfide bond linking s5A and s6A (Cys-292 and Cys-339)).
T3 construct: α1-antitrypsin (α1-AT), human cDNA in pQE31, Pittsburgh backbone (M358R and C232S) with S292C, T339C and E342A; Same chain as m7, with the engineered disulfide formed; also called α1-AT-SS-E342A (oxidized); source: E. coli, purified; oxidized form prepared
The data set is described as above. Conditions: both partners purified.

Data set [8] addresses B1. The description is as above. Conditions: both partners purified.

“α1-AT E342C-mod (E342C with Cys-342 chemically converted to a lysine-like residue) (from UniProt P01009 25-418) (natural protein)”: the SI (stoichiometry of inhibition) in data set [1] and in data set [2] was 3.4 in each case.

As for “α1-AT E342C (Pittsburgh backbone) (from UniProt P01009 25-418) (natural protein)”, the SI (stoichiometry of inhibition) in data set [1] and in data set [2] was 3 each time.

In data set [2], “recombinant wild type α1-antitrypsin (α1-AT Pittsburgh backbone, M358R and C232S) (from UniProt P01009 25-418) (natural protein)” came in with an SI (stoichiometry of inhibition) of 1.6.

On to B1, for which the binding result in data set [3] is reported as “binds”.

For the molecule B2, the binding result in data set [3] was “binds”.

Take FLEAIG [6-mer peptide (FLEAIG) derived from the P7 to P2 sequence of the α1-AT reactive loop]: the binding result in data set [4], in data set [5], in data set [6], in data set [7] and in data set [8] was “binds” in each case.
